Biological target: T1, GST-annexin A2 (human, UniProt P07355 1-339)
T1 construct: annexin A2 (ANXA2), human cDNA cloned into pGEX6P1; also called GST-ANXA2; source: E. coli, purified (glutathione beads)
Assay: far-Western, overlay or dot blot; purified proteins (10 µg) dot-blotted on nitrocellulose in duplicate; incubated with bio-PLG (10 µg) together with S100A11 (10 µg); 1 mM Ca2+, 50 mM Tris-HCl pH 7.4; detected with streptavidin-HRP or anti-S100A11
Details: both partners purified

T1 sequence (P07355 whole entry): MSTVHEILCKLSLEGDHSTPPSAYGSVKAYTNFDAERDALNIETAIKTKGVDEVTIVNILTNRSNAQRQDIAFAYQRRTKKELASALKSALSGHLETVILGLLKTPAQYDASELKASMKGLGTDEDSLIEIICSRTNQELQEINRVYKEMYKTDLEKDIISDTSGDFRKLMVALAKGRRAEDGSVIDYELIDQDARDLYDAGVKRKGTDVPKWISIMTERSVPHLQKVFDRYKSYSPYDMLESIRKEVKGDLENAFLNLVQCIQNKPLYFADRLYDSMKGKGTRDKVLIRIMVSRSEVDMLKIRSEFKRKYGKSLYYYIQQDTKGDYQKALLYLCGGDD

binding result: binds
B1: S100A11 (recombinant, GST cleaved) (natural protein, human, UniProt P31949 1-105, looked up)
chain: MAKISSPTETERCIESLIAVFQKYAGKDGYNYTLSKTEFLSFMNTELAAFTKNQKDPGVLDRMMKKLDTNSDGQLDFSEFLNLIGGLAMACHDSFLKAVPSQKRT
notes: S100A11, human cDNA cloned into pGEX6P1; source: E. coli, purified (glutathione beads), GST cleaved by PreScission Protease and removed
